We go through one molecule from patent publication US20240109961A1 (CELLDEX THERAPEUTICS, published 2024).

A word on the Kd: it is the equilibrium constant for the complex coming apart. As usually defined, the kon is the rate constant with which the complex forms. Higher therefore signals fast association. As usually defined, the koff is a measure of how fast the partners let go of each other. High values mean fast dissociation, low ones slow dissociation.

In test [1] the target is human KIT (wild-type KIT) (human, UniProt P10721 26-976). The test can be described thus: cell-based or functional assay.
Sequence of human KIT (wild-type KIT) (P10721 other isoform, or with tags, fused parts or gaps limits assumed): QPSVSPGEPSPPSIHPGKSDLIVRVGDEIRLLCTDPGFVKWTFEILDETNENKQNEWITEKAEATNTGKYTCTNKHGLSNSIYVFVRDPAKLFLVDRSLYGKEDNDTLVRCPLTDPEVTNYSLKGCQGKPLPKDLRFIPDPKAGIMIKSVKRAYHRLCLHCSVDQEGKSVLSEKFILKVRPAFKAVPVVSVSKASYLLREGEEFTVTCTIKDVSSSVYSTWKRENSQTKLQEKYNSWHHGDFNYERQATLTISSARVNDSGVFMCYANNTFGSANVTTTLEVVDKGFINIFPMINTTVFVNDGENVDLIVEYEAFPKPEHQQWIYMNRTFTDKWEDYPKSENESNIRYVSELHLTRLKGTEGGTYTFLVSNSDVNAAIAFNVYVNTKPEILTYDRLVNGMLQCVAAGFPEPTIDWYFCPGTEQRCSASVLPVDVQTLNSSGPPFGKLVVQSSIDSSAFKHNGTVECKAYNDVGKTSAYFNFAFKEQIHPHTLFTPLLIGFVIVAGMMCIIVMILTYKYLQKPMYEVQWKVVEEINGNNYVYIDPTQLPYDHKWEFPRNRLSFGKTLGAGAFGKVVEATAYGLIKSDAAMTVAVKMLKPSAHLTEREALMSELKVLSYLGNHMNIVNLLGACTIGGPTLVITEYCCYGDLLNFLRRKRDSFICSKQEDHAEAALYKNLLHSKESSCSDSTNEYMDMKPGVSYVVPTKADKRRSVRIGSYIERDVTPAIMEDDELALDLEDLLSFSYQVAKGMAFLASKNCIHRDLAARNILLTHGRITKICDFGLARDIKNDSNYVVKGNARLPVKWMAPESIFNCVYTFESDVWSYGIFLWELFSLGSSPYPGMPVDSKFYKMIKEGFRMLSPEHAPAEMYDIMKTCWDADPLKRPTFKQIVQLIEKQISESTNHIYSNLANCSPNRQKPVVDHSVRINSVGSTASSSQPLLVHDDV
A further test addresses T1, recombinant human FcγRI (human, UniProt P12314 16-288, limits assumed).
T1 construct: Histidine-tagged recombinant receptor captured on anti-Penta-His biosensors; also called Fc-gamma receptor I; not shown: histidine tag
Description: bio-layer interferometry (Octet QKe); His-tagged receptor on anti-Penta-His biosensor, antibody in solution. (In general: Biolayer interferometry detects binding as a change in optical thickness at a sensor tip.)

The target of test [2] is T2, recombinant human FcγRIIa (human, UniProt P12318 36-218, limits assumed).
T2 construct: Histidine-tagged recombinant receptor; not shown: histidine tag
T2 sequence (looked up): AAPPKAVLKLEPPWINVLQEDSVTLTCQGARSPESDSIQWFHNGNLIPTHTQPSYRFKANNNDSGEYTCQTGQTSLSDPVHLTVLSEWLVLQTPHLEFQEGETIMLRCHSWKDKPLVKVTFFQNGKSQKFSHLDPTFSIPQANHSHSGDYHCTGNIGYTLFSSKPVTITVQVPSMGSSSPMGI
The description is as above.

The target in test [3] is T3, recombinant human FcγRIIb (human, UniProt P31994 46-217, limits assumed).
T3 construct: Histidine-tagged recombinant receptor; not shown: histidine tag
T3 sequence (looked up): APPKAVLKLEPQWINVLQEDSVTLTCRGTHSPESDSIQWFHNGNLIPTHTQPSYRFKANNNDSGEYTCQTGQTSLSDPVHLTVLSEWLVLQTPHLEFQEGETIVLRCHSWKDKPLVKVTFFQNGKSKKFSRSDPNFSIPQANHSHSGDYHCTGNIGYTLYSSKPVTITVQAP
The test is described as above.

Test [4] has as its target T4, recombinant human FcγRIIIa (human, UniProt P08637 17-208).
T4 construct: Histidine-tagged recombinant receptor; not shown: histidine tag
The test is described as above.

Test [5] addresses T5, recombinant human FcγRIIIb (human, UniProt O75015 17-200).
T5 construct: Histidine-tagged recombinant receptor; not shown: histidine tag
Described as above.

The target in test [6] is T6, human neonatal Fc Receptor (FcRn) (human, UniProt P55899 24-297; P61769 21-119).
T6 construct: not shown: histidine tag
T6 sequence (P55899 24-297 limits assumed, form in doubt, chain 1 of 2): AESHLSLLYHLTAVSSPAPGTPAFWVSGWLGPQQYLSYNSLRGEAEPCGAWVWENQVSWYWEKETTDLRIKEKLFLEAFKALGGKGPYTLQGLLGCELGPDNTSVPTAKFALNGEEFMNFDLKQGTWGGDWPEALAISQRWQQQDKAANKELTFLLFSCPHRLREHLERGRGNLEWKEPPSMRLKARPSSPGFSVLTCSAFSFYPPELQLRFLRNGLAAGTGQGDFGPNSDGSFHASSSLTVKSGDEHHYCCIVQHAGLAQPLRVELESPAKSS
T6 sequence (P61769 21-119 limits assumed, form in doubt, chain 2 of 2): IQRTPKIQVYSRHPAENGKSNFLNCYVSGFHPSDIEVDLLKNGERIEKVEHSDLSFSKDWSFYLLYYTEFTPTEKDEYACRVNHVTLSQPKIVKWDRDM
The test can be described thus: bio-layer interferometry (Octet QKe) at pH 6.0; His-tagged FcRn on anti-Penta-His biosensor, antibody in solution.

For test [7], the target named is T6, human neonatal Fc Receptor (FcRn). The test can be described thus: bio-layer interferometry (Octet QKe) at pH 7.2; His-tagged FcRn on anti-Penta-His biosensor, antibody in solution.
Description: (§1) Binding to recombinant human Fc receptors was measured by bio-layer interferometry using an Octet® QKe instrument. […] Curve fitting was performed using the instrument's analysis software. Binding to FcRn was performed with association and dissociation steps at pH 6.0 as well as pH 7.2.
For test [8] the target is unchanged. Description: bio-layer interferometry (Octet QKe), His-tagged FcRn captured on anti-Penta-His biosensors, pH 7.2, antibody range 500-15.6 nM, R2 0.9876.
Description: as §1
The target is the same in test [9]. Description: bio-layer interferometry (Octet QKe), His-tagged FcRn captured on anti-Penta-His biosensors, pH 6.0, antibody range 31.25-1.9 nM, R2 0.9869.
Description: as §1
Test [10] has the same target. The test can be described thus: bio-layer interferometry (Octet QKe), His-tagged FcRn captured on anti-Penta-His biosensors, pH 7.2, antibody range 500-15.6 nM, R2 0.9876; row head Kdis(1/s).
Description: as §1
Test [11] shares this target. The test can be described thus: bio-layer interferometry (Octet QKe), His-tagged FcRn captured on anti-Penta-His biosensors, pH 6.0, antibody range 31.25-1.9 nM, R2 0.9869; row head Kdis(1/s).
Description: as §1

T4 sequence (P08637 17-208 limits assumed): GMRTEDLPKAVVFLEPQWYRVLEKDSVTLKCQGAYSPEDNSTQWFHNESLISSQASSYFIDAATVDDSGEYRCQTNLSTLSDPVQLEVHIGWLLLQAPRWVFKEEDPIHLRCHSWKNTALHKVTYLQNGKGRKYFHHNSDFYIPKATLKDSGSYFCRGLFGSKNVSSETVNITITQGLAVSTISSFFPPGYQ
T1 sequence (P12314 16-288 limits assumed): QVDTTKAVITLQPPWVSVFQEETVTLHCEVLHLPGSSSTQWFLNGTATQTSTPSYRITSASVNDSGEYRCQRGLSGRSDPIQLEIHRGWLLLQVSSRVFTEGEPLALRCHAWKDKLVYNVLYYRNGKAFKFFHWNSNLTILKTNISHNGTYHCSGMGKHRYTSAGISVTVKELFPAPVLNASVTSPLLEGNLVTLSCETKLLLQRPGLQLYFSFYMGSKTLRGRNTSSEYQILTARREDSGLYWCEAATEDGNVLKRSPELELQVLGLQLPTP
T5 sequence (O75015 17-200 limits assumed): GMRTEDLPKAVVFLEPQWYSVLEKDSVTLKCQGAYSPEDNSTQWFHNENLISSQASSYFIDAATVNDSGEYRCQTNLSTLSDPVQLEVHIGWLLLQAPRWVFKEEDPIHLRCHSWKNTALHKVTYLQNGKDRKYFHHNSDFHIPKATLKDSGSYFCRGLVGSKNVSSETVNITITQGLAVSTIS

B1: mAb1 (antibody)
heavy: QVQLVQSGAEVKKPGASVKLSCKASGYTFTDYYINWVRQAPGKGLEWIARIYPGSGNTYYNEKFKGRATLTADKSTSTAYMQLSSLRSEDTAVYFCARGVYYFDYWGQGTTVTVSSASTKGPSVFPLAPSSKSTSGGTAALGCLVKDYFPEPVTVSWNSGALTSGVHTFPAVLQSSGLYSLSSVVTVPSSSLGTQTYICNVNHKPSNTKVDKKVEPKSCDKTHTCPPCPAPEAQGGPSVFLFPPKPKDTLYITREPEVTCVVVDVSHEDPEVKFNWYVDGVEVHNAKTKPREEQYNSTYRVVSVLTVLHQDWLNGKEYKCQVSNKALPAPIEKTISKAKGQPREPQVYTLPPSRDELTKNQVSLTCLVKGFYPSDIAVEWESNGQPENNYKTTPPVLDSDGSFFLYSKLTVDKSRWQQGNVFSCSVMHEALHNHYTQKSLSLSPG
light: DIVMTQSPSSLSASVGDRVTITCKASQNVRTNVAWYQQKPGKAPKALIYSASYRYSGVPDRFTGSGSGTDFTLTISSLQPEDFADYFCQQYNSYPRTFGGGTKVEIKRTVAAPSVFIFPPSDEQLKSGTASVVCLLNNFYPREAKVQWKVDNALQSGNSQESVTEQDSKDSTYSLSSTLTLSKADYEKHKVYACEVTHQGLSSPVTKSFNRGEC
notes: Expressed in CHO cells; also called anti-KIT antibody mAb1; Fc mutated anti-KIT antibody
As for B1, the “mean IC50, inhibition of SCF-dependent M-07e cell proliferation” value in [1] was 1.11 nM. The binding result (in the test with recombinant human FcγRI; in [2]; in [3]; in test [4]; in test [5]) was “no binding (tested: 500 nM)” each time. Besides, the Kd in [6] was 0.38 nM; in test [7], 77.1 nM; in test [9] it was 0.383 nM. Besides, the results for the kon in test [8] and in test [9] were 1.05e+06 M⁻¹ s⁻¹ and 2e+06 M⁻¹ s⁻¹, respectively. For the same molecule, the koff in [10] turned out to be 0.0807 s⁻¹; in [11] it was 0.000765 s⁻¹.
